Source: paper PMC5485662 (Nature medicine, 2016)

What was measured:
HA of A/USSR/92/1977 [1] = target: T1, HA of A/USSR/92/1977 (Influenza A virus A/USSR/92/1977 …, UniProt P03453, strain); test: BLI
HA of A/USSR/92/1977 [2] = target: T1, HA of A/USSR/92/1977; test: cell-based or functional assay
[3] = target: HA ectodomain of wild-type A/California/07/2009 (pdm2009) (Influenza A virus A/California/07/2009 …); test: BLI

Binder | Kd (HA of A/USSR/92/1977 [1]) | IC50 of neutralisation (microneutralization, MDCK cells) of A/USSR/92/1977 virus (HA of A/USSR/92/1977 [2]) | Kd [3]
Fab of inferred intermediate I-2 of lineage CL6515 (Fab, V domains shown) VH: EVQLVQSGAEVKKPGESLKISCKGSGYSFTSYWIGWVRQMPGKGLEWMGIIYPGDSDTRYSPSFQGQVTISADKSISTAYLQWSSLKASDTAMYYCARVVADREGFGYYYGMDVWGQGTTVTVSS VL: EIVLTQSPGTLSLSPGERATLSCRASQSVDSSSLAWYQQKPGQAPRLLIYAASSRATGIPDRFSGSGSGTDFTLTISRLEPEDFAVYYCQQCGSSPWTFGQGTKVEIK | 1.9 µM | 0.012 µg/mL | 
 (Fab, V domains shown) VH: EVQLVQSGAEVKKPGESLKISCKGSGYSFTSYWIGWVRQMPGKGLEWMGIIYPGDSDTRYSPSFQGQVTISADKSISTAYLQWSSLKASDTAMYYCARVVADREGFGYYYGMDVWGQGTTVTVSS VL: not shown |  |  | > 50 µM
Fab of antibody D1 H1–2 (donor 1, 2011–12 cohort) (Fab, V domains shown) VH: QVQLQESGPGLVKPSETLSLRCAVSGSSISSLFYWGWIRQPPGKGPEWIGSIYHSGSTYYNPSLKSRVTISVDASKTQFSLNLNSVTAADTAVYYCAREYRILDERSNYFDAWGQGSPVTVSS VL: SYELTQPPSVSVSPGQTVSITCSGDKMGDKYASWYQQKPGQSPFLVIYQDNKRPSGIPERFSGSNSGNTATLTISGTQAMDEADYYCQTWDISSGVVFGGGTKL |  |  | > 100 µM
Fab of antibody D1 H1–12 (donor 1, 2011–12 cohort) (Fab, V domains shown) VH: QVQLQESGPGLVKPSETLSLTCSVSGGSLNTYYWSWIRQPPGKGLEWIGYIYYSGNTNYNPSLKSRVAISVDTSKNQFSLKLTSVTAADTAVYYCARLYMVRGELWGFYFDHWGQGTLVTVSS VL: QSVLTQPASVSGSPGQSITISCTGTSSDVGSYNLVSWYQHHPGKAPKLMIYEDIERPSGVSNRFSGSKSGNTASLTISGLQAEDEGDYYCCSYAGSSTSWVFGGGTKLTVL |  |  | > 100 µM
Fab of antibody D1 H1–53 (donor 1, 2011–12 cohort) (Fab, V domains shown) VH: QVQLQESGPGLVKPSETLSLTCTVSGGSITNYFWSWIRQPPGKGLEWIGYISYSGSTNHNPSLKSRVTMSLDTSKKQFSLKLSSVTAADMAVYFCARGERFGESPYYSYHMDVWGQGTTVTVSS VL: not shown |  |  | > 100 µM
